Measurements as given in US20250320294A1.
Where two headings read alike, the source gives them in different places.

What was measured:
[1] = biological target: human-CD45RO-ECD-His (human) (UniProt P08575); assay: ELISA, human-CD45RO-ECD-His-coated plates
[2] = biological target: human-CD45RO-ECD-His (human) (UniProt P08575); assay: ELISA, human-CD45RO-ECD-His-coated plates; remark: listed apart in the source
[3] = biological target: human-CD45RO-ECD-His (human) (UniProt P08575); assay: SPR, captured human-CD45RO-ECD-His, 1:1 binding

EC50 [1]: 328 pM | EC50 [2]: 544 pM | Kd [3]: 433000 pM | koff [3]: 0.00373 s⁻¹ | kon [3]: 8610 M⁻¹ s⁻¹
Substance: CD45RO Monoclonal Antibody (UCHL1) (eBioscience™)
